Values joined by “and” are separate entries in the source; they are usually repeats but may differ in a detail not shown here. Equal values may be shown once.
Tests used:
Assay type in all cases: in vivo, NOD/SCID mice
[1] = Small animal PET/CT imaging, H2009 tumor bearing mice; conditions: NOD/SCID, mouse, iv, total radioactivity
[2] = tested on: H2009 (αvβ6^+) xenografts; assay: as above; conditions: for Tumor uptake / Tumor/Lung: H2009 tumor bearing mice, n = 3; for Tumor uptake: quantitative PET, mean ± s.d.; for Tumor/Lung: ratio of PET uptakes
[3] = Small animal PET/CT imaging, H460 tumor bearing mice; conditions: NOD/SCID, mouse, iv, total radioactivity
H460 (αvβ6^-) xenografts = assay: as above; conditions: H460 tumor bearing mice, quantitative PET, mean ± s.d., n = 3

| SMILES | tissue uptake at 1 h ([1]; heart) [%ID/g] | tissue uptake at 24 h ([1]; heart) [%ID/g] | tissue uptake at 1 h ([1]; kidney) [%ID/g] | tissue uptake at 4 h ([1]; kidney) [%ID/g] | tissue uptake at 24 h ([1]; kidney) [%ID/g] | tissue uptake at 1 h ([1]; liver) [%ID/g] | tissue uptake at 4 h ([1]; liver) [%ID/g] | tissue uptake at 24 h ([1]; liver) [%ID/g] | tissue uptake at 1 h ([1]; lung) [%ID/g] | tissue uptake at 4 h ([1]; lung) [%ID/g] | tissue uptake at 24 h ([1]; lung) [%ID/g] | tissue uptake at 1 h ([1]; muscle) [%ID/g] | tissue uptake at 4 h ([1]; muscle) [%ID/g] | tissue uptake at 24 h ([1]; muscle) [%ID/g] | Tumor uptake ([2]; 1 h p.i.) [%ID/g] | Tumor uptake ([2]; 4 h p.i.) [%ID/g] | Tumor uptake ([2]; 24 h p.i.) | tissue uptake at 1 h ([3]; heart) [%ID/g] | tissue uptake at 4 h ([3]; heart) [%ID/g] | tissue uptake at 24 h ([3]; heart) [%ID/g] | other results |
| --- | --- | --- | --- | --- | --- | --- | --- | --- | --- | --- | --- | --- | --- | --- | --- | --- | --- | --- | --- | --- | --- |
| CC(=O)N[C@@H](CCCNC(=N)N)C(=O)NCC(=O)N[C@@H](CC(=O)O)C(=O)N[C@@H](CC(C)C)C(=O)N[C@@H](C)C(=O)N[C@H](C(=O)N[C@@H](CC(C)C)C(=O)N[C@@H](CCCNC(=N)N)C(=O)N[C@@H](CCC(N)=O)C(=O)N[C@@H](CC(C)C)C(=O)NCCOCCOCCOCCOCCOCCOCCOCCOCCOCCOCCOCCOCCC(=O)N[C@@H](CSC1CC(=O)N(CCC(=O)NCCCC[C@H](NC(=O)CCN2C(=O)CC(SC[C@H](NC(=O)CCOCCOCCOCCOCCOCCOCCOCCOCCOCCOCCOCCOCCNC(=O)[C@H](CC(C)C)NC(=O)[C@H](CCC(N)=O)NC(=O)[C@H](CCCNC(=N)N)NC(=O)[C@H](CC(C)C)NC(=O)[C@@H](NC(=O)[C@H](C)NC(=O)[C@H](CC(C)C)NC(=O)[C@H](CC(=O)O)NC(=O)CNC(=O)[C@H](CCCNC(=N)N)NC(C)=O)[C@@H](C)O)C(N)=O)C2=O)C(=O)NCCC(=O)N[C@@H](CSC2CC(=O)N(CCNC(=O)CCC(C(=O)O)N3CCCN4CCN(CCCN(CC(=O)O)CC4)CC3)C2=O)C(N)=O)C1=O)C(N)=O)[C@@H](C)O (stereo partly drawn) [^64Cu-AcD10, metal not drawn] | 0.78 ± 0.05 | 0.21 ± 0.01 | 18.8 ± 2.2 | 19.1 ± 3.3 | 5.4 ± 0.87 | 1.08 ± 0.11 | 0.72 ± 0.09 | 0.55 ± 0.1 | 1.33 ± 0.23 | 0.65 ± 0.03 | 0.34 ± 0.08 | 0.83 ± 0.14 | 0.42 ± 0.05 | 0.32 ± 0.1 | 1.46 ± 0.15 | 0.98 ± 0.01 | 0.68 ± 0.02 %ID/g | 0.82 ± 0.05 | 0.5 ± 0.04 | 0.26 | Tumor/Lung ([2]; 1 h p.i.): 1.1 ± 0.27; Tumor/Lung ([2]; 4 h p.i.): 1.51 ± 0.03; Tumor/Lung ([2]; 24 h p.i.): 2.0 ± 0.08; tumor uptake increase as compared to 64Cu-M10 ([2]; H2009 tumor, all three time points (1 h, 4 h, 24 h p.i.)): ~3 fold; tissue uptake at 1 h ([3]; kidney): 19.5 ± 0.36 %ID/g; tissue uptake at 4 h ([3]; kidney): 18.4 ± 0.92 %ID/g; tissue uptake at 24 h ([3]; kidney): 3.43 ± 1.8 %ID/g; tissue uptake at 1 h ([3]; liver): 1.13 ± 0.15 %ID/g; tissue uptake at 4 h ([3]; liver): 0.95 ± 0.06 %ID/g; tissue uptake at 24 h ([3]; liver): 0.71 ± 0.04 %ID/g; tissue uptake at 1 h ([3]; lung): 1.02 ± 0.06 %ID/g; tissue uptake at 4 h ([3]; lung): 0.65 ± 0.02 %ID/g; tissue uptake at 24 h ([3]; lung): 0.24 ± 0.1 %ID/g; tissue uptake at 1 h ([3]; muscle): 0.61 ± 0.12 %ID/g; tissue uptake at 4 h ([3]; muscle): 0.35 ± 0.05 %ID/g; tissue uptake at 24 h ([3]; muscle): 0.19 ± 0.13 %ID/g; Tumor uptake (H460 (αvβ6^-) xenografts; 1 h p.i.): 0.73 ± 0.13 %ID/g; Tumor uptake (H460 (αvβ6^-) xenografts; 4 h p.i.): 0.45 ± 0.11 %ID/g; Tumor uptake (H460 (αvβ6^-) xenografts; 24 h p.i.): 0.35 ± 0.05 %ID/g |
| CC(C)C[C@H](NC(=O)[C@H](CCC(N)=O)NC(=O)[C@H](CCCNC(=N)N)NC(=O)[C@H](CC(C)C)NC(=O)[C@@H](NC(=O)[C@H](C)NC(=O)[C@H](CC(C)C)NC(=O)[C@H](CC(=O)O)NC(=O)CNC(=O)[C@@H](N)CCCNC(=N)N)[C@@H](C)O)C(=O)NCCOCCOCCOCCOCCOCCOCCOCCOCCOCCOCCOCCOCCC(=O)N[C@@H](CSC1CC(=O)N(CCNC(=O)CCC(C(=O)O)N2CCCN3CCN(CCCN(CC(=O)O)CC3)CC2)C1=O)C(N)=O (stereo partly drawn) [^64Cu-M10, metal not drawn] | 1.02 ± 0.07 | 0.16 ± 0.05 | 6.83 ± 0.35 | 6.23 ± 0.32 | 3.5 ± 0.36 | 2.03 ± 0.23 | 1.53 ± 0.21 | 1.3 ± 0.1 | 0.66 ± 0.08 | 0.33 ± 0.11 | 0.15 ± 0.04 | 0.3 ± 0.02 | 0.12 ± 0.02 | 0.14 ± 0.02 | 0.55 ± 0.17 | 0.33 ± 0.11 | 0.28 ± 0.11 %ID/g | 1.02 ± 0.17 | 0.65 ± 0.12 | 0.33 ± 0.03 | tissue uptake at 4 h ([1]; heart): 0.42 ± 0.06 %ID/g; Tumor/Lung ([2]; 1 h p.i.): 0.83 ± 0.18; Tumor/Lung ([2]; 4 h p.i.): 1.0 ± 0.15; Tumor/Lung ([2]; 24 h p.i.): 1.86 ± 0.11; tissue uptake at 1 h ([3]; kidney): 14 ± 2.4 %ID/g; tissue uptake at 4 h ([3]; kidney): 12.5 ± 2.33 %ID/g; tissue uptake at 24 h ([3]; kidney): 5.97 ± 1.01 %ID/g; tissue uptake at 1 h ([3]; liver): 0.93 ± 0.12 %ID/g; tissue uptake at 4 h ([3]; liver): 0.77 ± 0.06 %ID/g; tissue uptake at 24 h ([3]; liver): 0.43 ± 0.05 %ID/g; tissue uptake at 1 h ([3]; lung): 0.55 ± 0.09 %ID/g; tissue uptake at 4 h ([3]; lung): 0.34 ± 0.07 %ID/g; tissue uptake at 24 h ([3]; lung): 0.18 ± 0.02 %ID/g; tissue uptake at 1 h ([3]; muscle): 0.15 ± 0.07 %ID/g; tissue uptake at 4 h ([3]; muscle): 0.11 ± 0.04 %ID/g; tissue uptake at 24 h ([3]; muscle): 0.1 ± 0.03 %ID/g; Tumor uptake (H460 (αvβ6^-) xenografts; 1 h p.i.): 0.34 ± 0.05 %ID/g; Tumor uptake (H460 (αvβ6^-) xenografts; 4 h p.i.): 0.24 ± 0.01 %ID/g; Tumor uptake (H460 (αvβ6^-) xenografts; 24 h p.i.): 0.19 ± 0.01 %ID/g |
| N=C(N)NCCC[C@@H]1NC(=O)[C@H](CCCCNC(=O)CCC(C(=O)O)N2CCCN3CCN(CCCN(C(CCC(=O)NCCCC[C@@H]4NC(=O)[C@@H](Cc5ccc(O)cc5)NC(=O)[C@H](CC(=O)O)NC(=O)CNC(=O)[C@H](CCCNC(=N)N)NC4=O)C(=O)O)CC3)CC2)NC(=O)[C@@H](Cc2ccc(O)cc2)NC(=O)[C@H](CC(=O)O)NC(=O)CNC1=O (stereo partly drawn) [^64Cu-CB-TE2A-(c(RGDyK))2, metal not drawn, reference compound] | 1.67 ± 0.13 | 0.4 ± 0.12 | 3.43 ± 0.25 | 1.35 ± 0.54 | 0.93 ± 0.09 | 2.56 ± 0.41 | 1.97 ± 0.19 | 1.65 ± 0.35 | 0.7 ± 0.05 | 0.61 ± 0.17 | 0.39 ± 0.18 | 0.41 ± 0.04 | 0.26 ± 0.12 | 0.24 ± 0.08 | 1.58 ± 0.13 | 1.07 ± 0.21 | 0.7 %ID/g and 0.70 ± 0.29 %ID/g | 1.9 ± 0.72 | 0.54 ± 0.26 | 0.42 ± 0.05 | tissue uptake at 4 h ([1]; heart): 0.58 ± 0.13 %ID/g; tissue uptake at 1 h ([3]; kidney): 4.33 ± 1 %ID/g; tissue uptake at 4 h ([3]; kidney): 1.8 ± 0.57 %ID/g; tissue uptake at 24 h ([3]; kidney): 1.2 ± 0.14 %ID/g; tissue uptake at 1 h ([3]; liver): 2.13 ± 0.25 %ID/g; tissue uptake at 4 h ([3]; liver): 1.61 ± 0.41 %ID/g; tissue uptake at 24 h ([3]; liver): 2.05 ± 0.07 %ID/g; tissue uptake at 1 h ([3]; lung): 0.68 ± 0.02 %ID/g; tissue uptake at 4 h ([3]; lung): 0.48 ± 0.06 %ID/g; tissue uptake at 24 h ([3]; lung): 0.3 ± 0.01 %ID/g; tissue uptake at 1 h ([3]; muscle): 0.39 ± 0.06 %ID/g; tissue uptake at 4 h ([3]; muscle): 0.31 ± 0.04 %ID/g; tissue uptake at 24 h ([3]; muscle): 0.27 ± 0.03 %ID/g; Tumor uptake (H460 (αvβ6^-) xenografts; 1 h p.i.): 1.64 ± 0.20 %ID/g; Tumor uptake (H460 (αvβ6^-) xenografts; 4 h p.i.): 1.09 ± 0.24 %ID/g; Tumor uptake (H460 (αvβ6^-) xenografts; 24 h p.i.): 0.7 %ID/g and 0.72 ± 0.10 %ID/g |
